The source of these data is paper PMC4462945 (Molecular Biology of the Cell, 2015).

Holding throughout (test): pull-down
In one assay the target is T1, GST-FliI LRR (mouse).
T1 sequence (Q9JJ28 whole entry, looked up): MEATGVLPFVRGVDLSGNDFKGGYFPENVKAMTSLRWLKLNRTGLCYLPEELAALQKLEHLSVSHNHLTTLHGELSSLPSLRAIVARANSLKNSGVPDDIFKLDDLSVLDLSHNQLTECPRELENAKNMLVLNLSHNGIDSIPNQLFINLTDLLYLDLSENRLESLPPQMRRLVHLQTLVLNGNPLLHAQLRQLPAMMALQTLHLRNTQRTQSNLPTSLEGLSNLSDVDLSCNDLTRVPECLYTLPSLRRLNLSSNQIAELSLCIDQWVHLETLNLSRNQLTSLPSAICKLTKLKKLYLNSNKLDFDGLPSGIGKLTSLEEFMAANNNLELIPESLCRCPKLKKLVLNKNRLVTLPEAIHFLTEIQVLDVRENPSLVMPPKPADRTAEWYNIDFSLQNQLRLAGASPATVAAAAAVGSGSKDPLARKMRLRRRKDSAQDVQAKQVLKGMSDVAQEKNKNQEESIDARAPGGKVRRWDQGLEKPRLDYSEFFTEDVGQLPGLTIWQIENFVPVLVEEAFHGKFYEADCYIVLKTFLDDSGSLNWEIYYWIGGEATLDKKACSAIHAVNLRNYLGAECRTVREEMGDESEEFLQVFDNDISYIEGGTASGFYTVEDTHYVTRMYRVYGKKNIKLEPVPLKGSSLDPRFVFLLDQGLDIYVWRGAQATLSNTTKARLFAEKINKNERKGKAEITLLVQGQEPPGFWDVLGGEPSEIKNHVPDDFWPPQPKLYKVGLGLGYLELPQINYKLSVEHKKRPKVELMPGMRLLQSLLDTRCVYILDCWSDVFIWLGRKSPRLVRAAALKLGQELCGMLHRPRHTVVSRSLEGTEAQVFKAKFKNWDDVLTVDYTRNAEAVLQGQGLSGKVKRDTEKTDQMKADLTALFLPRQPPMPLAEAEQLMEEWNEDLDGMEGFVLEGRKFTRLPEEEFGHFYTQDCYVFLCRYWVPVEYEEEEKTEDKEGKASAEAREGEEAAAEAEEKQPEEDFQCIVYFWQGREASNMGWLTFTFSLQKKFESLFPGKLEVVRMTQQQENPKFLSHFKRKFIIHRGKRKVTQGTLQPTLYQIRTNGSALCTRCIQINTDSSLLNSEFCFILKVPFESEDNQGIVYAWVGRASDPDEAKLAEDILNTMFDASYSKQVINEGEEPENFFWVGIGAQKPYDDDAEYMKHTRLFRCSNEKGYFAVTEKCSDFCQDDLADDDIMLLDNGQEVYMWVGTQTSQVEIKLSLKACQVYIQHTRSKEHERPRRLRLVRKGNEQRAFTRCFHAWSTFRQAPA

For a further assay, the target named is T2, GST-FliI GLD 2–6 (mouse, UniProt Q9JJ28 619-1271).
T2 sequence (looked up): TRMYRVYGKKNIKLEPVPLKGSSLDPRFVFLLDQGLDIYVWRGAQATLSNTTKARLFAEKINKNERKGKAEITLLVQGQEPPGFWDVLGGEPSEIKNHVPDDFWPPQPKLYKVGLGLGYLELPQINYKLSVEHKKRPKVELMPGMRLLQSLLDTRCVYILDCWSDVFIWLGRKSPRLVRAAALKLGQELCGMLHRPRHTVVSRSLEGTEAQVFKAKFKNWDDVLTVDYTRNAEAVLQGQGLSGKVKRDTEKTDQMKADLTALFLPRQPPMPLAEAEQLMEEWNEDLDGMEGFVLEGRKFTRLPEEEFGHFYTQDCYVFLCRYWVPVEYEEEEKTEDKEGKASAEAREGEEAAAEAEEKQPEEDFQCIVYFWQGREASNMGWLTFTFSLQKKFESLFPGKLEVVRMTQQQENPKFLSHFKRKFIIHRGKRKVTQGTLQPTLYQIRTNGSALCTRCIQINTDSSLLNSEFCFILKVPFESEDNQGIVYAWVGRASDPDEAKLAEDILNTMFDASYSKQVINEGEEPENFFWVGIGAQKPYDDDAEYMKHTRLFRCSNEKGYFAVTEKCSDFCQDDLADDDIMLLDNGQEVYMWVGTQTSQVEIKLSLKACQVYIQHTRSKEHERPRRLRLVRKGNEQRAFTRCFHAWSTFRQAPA

For a further assay, the target named is T3, GST-FliI GLD 1–6 (mouse, UniProt Q9JJ28 398-1271).
T3 sequence (looked up): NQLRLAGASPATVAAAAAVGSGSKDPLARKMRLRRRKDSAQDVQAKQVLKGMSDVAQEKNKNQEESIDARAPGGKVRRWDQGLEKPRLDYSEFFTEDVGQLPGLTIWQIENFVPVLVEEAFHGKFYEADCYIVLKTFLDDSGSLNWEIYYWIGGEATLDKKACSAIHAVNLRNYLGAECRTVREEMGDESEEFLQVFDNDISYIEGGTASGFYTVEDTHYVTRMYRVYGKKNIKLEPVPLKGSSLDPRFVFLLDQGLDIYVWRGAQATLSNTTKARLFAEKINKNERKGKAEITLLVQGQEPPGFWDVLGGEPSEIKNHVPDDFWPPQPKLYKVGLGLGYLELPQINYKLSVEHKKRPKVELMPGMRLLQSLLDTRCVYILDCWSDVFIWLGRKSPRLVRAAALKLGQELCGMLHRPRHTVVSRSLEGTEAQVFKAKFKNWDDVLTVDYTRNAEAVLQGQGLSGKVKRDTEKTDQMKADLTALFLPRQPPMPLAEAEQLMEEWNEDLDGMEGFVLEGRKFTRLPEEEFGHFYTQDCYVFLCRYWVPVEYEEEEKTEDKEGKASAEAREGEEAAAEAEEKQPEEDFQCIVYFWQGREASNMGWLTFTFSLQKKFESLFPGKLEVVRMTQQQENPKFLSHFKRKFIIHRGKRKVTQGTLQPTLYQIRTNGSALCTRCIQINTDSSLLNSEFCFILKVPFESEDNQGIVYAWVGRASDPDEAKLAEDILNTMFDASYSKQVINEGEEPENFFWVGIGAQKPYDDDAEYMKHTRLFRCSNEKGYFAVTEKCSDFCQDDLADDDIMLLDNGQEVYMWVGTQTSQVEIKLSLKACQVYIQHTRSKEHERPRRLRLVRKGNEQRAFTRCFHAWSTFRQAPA

For the molecule “NMMIIA rods (residues 1338–1960) (from UniProt P35579 1338-1960) (domain or fragment)”, the dissociation constant (Kd) with GST-FliI LRR (mouse) came to 5070 nM.

B1: NMMIIA rods (residues 1338–1960) (domain or fragment, UniProt P35579 1338-1960, looked up)
chain: KNSFREQLEEEEEAKHNLEKQIATLHAQVADMKKKMEDSVGCLETAEEVKRKLQKDLEGLSQRHEEKVAAYDKLEKTKTRLQQELDDLLVDLDHQRQSACNLEKKQKKFDQLLAEEKTISAKYAEERDRAEAEAREKETKALSLARALEEAMEQKAELERLNKQFRTEMEDLMSSKDDVGKSVHELEKSKRALEQQVEEMKTQLEELEDELQATEDAKLRLEVNLQAMKAQFERDLQGRDEQSEEKKKQLVRQVREMEAELEDERKQRSMAVAARKKLEMDLKDLEAHIDSANKNRDEAIKQLRKLQAQMKDCMRELDDTRASREEILAQAKENEKKLKSMEAEMIQLQEELAAAERAKRQAQQERDELADEIANSSGKGALALEEKRRLEARIAQLEEELEEEQGNTELINDRLKKANLQIDQINTDLNLERSHAQKNENARQQLERQNKELKVKLQEMEGTVKSKYKASITALEAKIAQLEEQLDNETKERQAACKQVRRTEKKLKDVLLQVDDERRNAEQYKDQADKASTRLKQLKRQLEEAEEEAQRANASRRKLQRELEDATETADAMNREVSSLKNKLRRGDLPFVVPRRMARKGAGDGSDEEVDGKADGAEAKPAE
On to B1, for which the figures for the Kd with GST-FliI GLD 2–6 and with GST-FliI GLD 1–6 were 858 nM and 146 nM, respectively.
